{"source": "paper PMC8809517", "about": "“Cofactor-independent RNA editing by a synthetic S-type PPR protein”", "binders": {"B1": {"name": "Cy5-rpoA (ssRNA)", "RNA": "AUUACACGUGA"}, "B2": {"name": "IR-rpoA-U (ssRNA)", "RNA": "AUUAUACGUGA"}, "B3": {"name": "Cy5-rpoA-G (ssRNA)", "RNA": "AUUAGACGUGA"}, "B4": {"name": "IR-rpoA-A (ssRNA)", "RNA": "AUUAAACGUGA"}}, "assay_in_all_cases": "high-throughput RNA pulldown from lysate on Ni-NTA beads; HRP: 50 mM Tris pH 8, 150 mM NaCl, 1 mM beta-mercaptoethanol, 50 ug/ml BSA, 3 ug/ml yeast RNA, 0.5% heparin; ITC and FP: Tris pH 8, 200 mM KCl, 5% glycerol; MST: 50 mM Tris pH 8, 200 mM NaCl, 1 mM DTT, BSA, heparin, 0.05% Tween 20", "conditions_in_all_cases": "tags: N-terminal His-eGFP", "key": {"[1]": {"target": "T1, GFP-9S library array, motif 4 ND N98I;D124A (synthetic construct, N98I;D124A)", "T1 chain": "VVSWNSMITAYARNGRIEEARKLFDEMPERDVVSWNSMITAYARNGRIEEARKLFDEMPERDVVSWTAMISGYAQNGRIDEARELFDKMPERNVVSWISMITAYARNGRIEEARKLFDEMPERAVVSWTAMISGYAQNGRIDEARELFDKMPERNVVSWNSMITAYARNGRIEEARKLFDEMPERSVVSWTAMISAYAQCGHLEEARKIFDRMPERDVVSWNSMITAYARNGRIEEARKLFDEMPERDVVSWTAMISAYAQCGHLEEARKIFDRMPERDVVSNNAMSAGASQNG"}, "[2]": {"target": "T2, GFP-9S library array, motif 4 ND N98G;D124A (synthetic construct, N98G;D124A)", "T2 chain": "T1 chain with I98G"}, "[3]": {"target": "T3, GFP-9S library array, motif 4 ND N98V;D124Q (synthetic construct, N98V;D124Q)", "T3 chain": "T1 chain with I98V, A124Q"}, "[4]": {"target": "T4, GFP-9S library array, motif 4 ND N98F;D124Q (synthetic construct, N98F;D124Q)", "T4 chain": "T1 chain with I98F, A124Q"}, "[5]": {"target": "T5, GFP-9S library array, motif 4 ND N98T;D124C (synthetic construct, N98T;D124C)", "T5 chain": "T1 chain with I98T, A124C"}}, "note": "Substitutions are numbered along the chain they refer to."}
{"binder": "B1", "values": [{"measurement": "Kd", "setting": "[1]; label: 5' Cy5", "value": 213, "unit": "nM"}, {"measurement": "Kd", "setting": "[2]; label: 5' Cy5", "value": 124, "unit": "nM"}, {"measurement": "Kd", "setting": "[3]; label: 5' Cy5", "value": 144, "unit": "nM"}, {"measurement": "Kd", "setting": "[4]; label: 5' Cy5", "value": 158, "unit": "nM"}, {"measurement": "Kd", "setting": "[5]; label: 5' Cy5", "value": 330, "unit": "nM"}]}
{"binder": "B2", "values": [{"measurement": "Kd", "setting": "[1]; label: 5' IRDye 800CW", "value": 757, "unit": "nM"}, {"measurement": "Kd", "setting": "[2]; label: 5' IRDye 800CW", "value": 175, "unit": "nM"}, {"measurement": "Kd", "setting": "[3]; label: 5' IRDye 800CW", "value": 167, "unit": "nM"}, {"measurement": "Kd", "setting": "[4]; label: 5' IRDye 800CW", "value": 466, "unit": "nM"}, {"measurement": "Kd", "setting": "[5]; label: 5' IRDye 800CW", "value": 119, "unit": "nM"}]}
{"binder": "B3", "values": [{"measurement": "Kd", "setting": "[1]; label: 5' Cy5", "value": 259, "unit": "nM"}, {"measurement": "Kd", "setting": "[2]; label: 5' Cy5", "value": 101, "unit": "nM"}, {"measurement": "Kd", "setting": "[3]; label: 5' Cy5", "value": 126, "unit": "nM"}, {"measurement": "Kd", "setting": "[4]; label: 5' Cy5", "value": 143, "unit": "nM"}, {"measurement": "Kd", "setting": "[5]; label: 5' Cy5", "value": 8.1, "unit": "nM"}]}
{"binder": "B4", "values": [{"measurement": "Kd", "setting": "[1]; label: 5' IRDye 800CW", "value": 620, "unit": "nM"}, {"measurement": "Kd", "setting": "[2]; label: 5' IRDye 800CW", "value": 133, "unit": "nM"}, {"measurement": "Kd", "setting": "[3]; label: 5' IRDye 800CW", "value": 166, "unit": "nM"}, {"measurement": "Kd", "setting": "[4]; label: 5' IRDye 800CW", "value": 419, "unit": "nM"}, {"measurement": "Kd", "setting": "[5]; label: 5' IRDye 800CW", "value": 88.6, "unit": "nM"}]}
